In patent US6989144:

Assays:
[1] = molecular target: GPVI on baboon platelets (baboon); assay: flow cytometry, washed baboon platelets; negative control
[2] = molecular target: GPVI on baboon platelets (baboon); assay: flow cytometry, washed baboon platelets
[3] = molecular target: soluble human GPVI-Fc (extracellular domain of GPVI fused to Fc; hGPVI-human IgG1Fc) (human) (UniProt Q9HCN6); assay: 125I-convulxin binding to GPVI-Fc captured on 1P10.2, 10 µg/ml reagent; competitor ligand convulxin
[4] = molecular target: collagen type I; assay: cell-based or functional assay

Sequence of soluble human GPVI-Fc (extracellular domain of GPVI fused to Fc; hGPVI-human IgG1Fc) (human) (Q9HCN6 other isoform, or with tags, fused parts or gaps): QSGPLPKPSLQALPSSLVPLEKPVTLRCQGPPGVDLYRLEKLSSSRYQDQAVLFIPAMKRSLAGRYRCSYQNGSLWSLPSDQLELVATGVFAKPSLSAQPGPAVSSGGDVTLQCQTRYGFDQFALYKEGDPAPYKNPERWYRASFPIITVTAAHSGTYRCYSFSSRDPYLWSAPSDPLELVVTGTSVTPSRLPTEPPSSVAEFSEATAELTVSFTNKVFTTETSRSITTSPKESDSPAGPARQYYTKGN

monoclonal antibody 7H14.1 (negative control)
Baboon fluorescence intensity [1]: 9
Baboon platelets % positive [1]: 6.8%

monoclonal antibody 7120.2 (negative control)
Baboon fluorescence intensity [1]: 10
Baboon platelets % positive [1]: 9%

mouse monoclonal antibody produced by hybridoma cell line 9012.2
Baboon fluorescence intensity [2]: 18
Baboon platelets % positive [2]: 33.8%
% blocking of GPVI-Fc binding to convulxin [3]: > 25%

recombinant human soluble GPVI:Fc (rhusGPVI:Fc) (from UniProt Q9HCN6 21-269) (Fc fusion)
collagen-induced platelet aggregation and secretion [4]: 10 fold
